Reference: patent US20220016130

Target: His-BRD4-N (amino acids 1-500), O60885

B1: GST-SPOP (protein)
chain: MSRVPSPPPPAEMSSGPVAESWCYTQIKVVKFSYMWTINNFSFCREEMGEVIKSSTFSSGANDKLKWCLRVNPKGLDEESKDYLSLYLLLVSCPKSEVRAKFKFSILNAKGEETKAMESQRAYRFVQGKDWGFKKFIRRDFLLDEANGLLPDDKLTLFCEVSVVQDSVNISGQNTMNMVKVPECRLADELGGLWENSRFTDCCLCVAGQEFQAHKAILAARSPVFSAMFEHEMEESKKNRVEINDVEPEVFKEMMCFIYTGKAPNLDKMADDLLAAADKYALERLKVMCEDALCSNLSVENAAEILILADLHSADQLKTQAVDFINYHASDVLETSGWKSMVVSHPHLVAEAYRSLASAQCPFLGPPRKRLKQS
in vitro ubiquitination assay (western blot): The SPOP-CULLIN3-RBX1 complex was shown to catalyzed BRD4 ubiquitination in vitro
